How the values were obtained:
Assay in all cases: potentiometry
Conditions in all cases: 25 °C (± 0.2 °C); 0.1 M (KCl); none (4 mM HCl, 0.1 M KCl); peptide 0.001 M; metal-free peptide, unstructured (random-coil CD spectrum)
[1] = target: Asp129 (UniProt position 129, …)
[2] = target: His124 (UniProt position 124, …)
[3] = target: Asp129 (UniProt position 129, …); remark: listed apart in the source
[4] = target: His124 (UniProt position 124, …); remark: listed apart in the source
[5] = target: Asp129 (UniProt position 129, …); remark: listed apart in the source

Protein: HEARQDEH [HSPB1(124-131) peptide L4, Ac-HEARQDEH-NH2 (Homo sapiens; E126A)]
- pKa [1]: 3.26

Protein: HEARQDEA [HSPB1(124-131) peptide L3, Ac-HEARQDEA-NH2 (Homo sapiens; E126A;H131A)]
- pKa [2]: 6.71
- pKa [3]: 3.47

Protein: HEERQDEA [HSPB1(124-131) peptide L2, Ac-HEERQDEA-NH2 (Homo sapiens; H131A)]
- pKa [4]: 7.00
- pKa [5]: 3.60

Reference: publication PMC12444091
